Here are results for 1 molecule from publication PMC12630357 (The Journal of Biological Chemistry, 2025).

What is called stoichiometry N is a count of units in the complex or per binding partner.

This assay has as its target T1, 6xHis-CotV (Bacillus subtilis 168, UniProt Q08309 1-128).
T1 construct: CotV, spore coat (crust) protein of Bacillus subtilis strain 168; native ORF printed as 129 residues; residues 1-125 resolved in the model; Forms a helical filament; the number of copies is not fixed; also called 6xHis-tagged CotV; CotV1; source: E. coli BL21(DE3), coexpressed with CotW from pET-DUET, Ni-NTA purified as the CotVW complex; not shown: 6xHis (within an N-terminal extension of 14 …)
T1 sequence (looked up): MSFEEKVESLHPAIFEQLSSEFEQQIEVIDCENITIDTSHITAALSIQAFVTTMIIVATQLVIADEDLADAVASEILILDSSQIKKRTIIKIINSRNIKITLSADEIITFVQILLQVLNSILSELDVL
Description: cryo-EM structure; helical reconstruction of 6xHis-tagged CotVW filaments, 3.32 Å; twist 153.09°, rise 9.52 Å, one CotV-CotW heterodimer per asymmetric unit. The following applies: both partners purified.

B1: CotW (natural protein, Bacillus subtilis 168, UniProt Q08310 1-105, looked up)
chain: MSDNDKFKEELAKLPEVDPMTKMLVQNIFSKHGVTKDKMKKVSDEEKEMLLNLVKDLQAKSQALIENQKKKKEEAAAQEQKNTKPLSRREQLIEQIRQRRKNDNN
notes: CotW, spore coat (crust) protein of Bacillus subtilis strain 168; native ORF 105 residues; residues 18-98 resolved in the model; also called CotW1; CotW monomer; source: E. coli BL21(DE3), coexpressed with 6xHis-CotV from pET-DUET, co-purified on Ni-NTA as the CotVW complex; not shown: single added tyrosine, C-terminal, kept
As to B1, the “stoichiometry N” value is 1.
